Results taken from article PMC4893161, “The Dynamic Localization of Cytoplasmic Dynein in Neurons Is Driven by Kinesin-1” (Neuron, 2016).
One block for each substance: values may come before it.

Columns and labels:
[1] = target: KLC2^TPR, purified TPR domain of KLC2; assay: fluorescence polarisation; TAMRA-conjugated DIC1 tryptophan-motif peptides with purified KLC1 or KLC2 TPR domain; KD values determined at 150 mM NaCl
[2] = target: HA-tagged KLC2 (kinesin light chain 2) (UniProt O88448); assay: co-immunoprecipitation (IP with anti-mCherry, western blot band intensity); conditions: COS cells cotransfected, n = 4 experiments, parent: est. 1, read off a plot
Sequence of HA-tagged KLC2 (kinesin light chain 2) (O88448 whole entry): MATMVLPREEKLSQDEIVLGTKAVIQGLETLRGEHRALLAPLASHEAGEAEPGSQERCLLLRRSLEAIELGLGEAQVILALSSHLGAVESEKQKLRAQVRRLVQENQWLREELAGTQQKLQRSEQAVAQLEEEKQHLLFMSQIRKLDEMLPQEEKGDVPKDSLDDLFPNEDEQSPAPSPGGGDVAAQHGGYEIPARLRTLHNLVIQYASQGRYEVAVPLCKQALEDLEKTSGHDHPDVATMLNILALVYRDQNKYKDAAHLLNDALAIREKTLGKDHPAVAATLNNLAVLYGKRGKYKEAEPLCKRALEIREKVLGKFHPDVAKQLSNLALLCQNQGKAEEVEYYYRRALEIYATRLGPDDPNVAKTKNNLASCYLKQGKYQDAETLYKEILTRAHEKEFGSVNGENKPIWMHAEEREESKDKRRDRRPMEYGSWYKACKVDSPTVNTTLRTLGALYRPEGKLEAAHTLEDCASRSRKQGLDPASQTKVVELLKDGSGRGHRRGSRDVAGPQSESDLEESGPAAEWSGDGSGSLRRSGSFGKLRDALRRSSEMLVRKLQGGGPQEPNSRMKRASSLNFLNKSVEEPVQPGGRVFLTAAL

[3] = target: HA-tagged KLC1 (kinesin light chain 1) (UniProt O88447); assay: as above; conditions: COS cells cotransfected, n = 6 experiments, parent: est. 1, read off a plot
Sequence of HA-tagged KLC1 (kinesin light chain 1) (O88447 whole entry): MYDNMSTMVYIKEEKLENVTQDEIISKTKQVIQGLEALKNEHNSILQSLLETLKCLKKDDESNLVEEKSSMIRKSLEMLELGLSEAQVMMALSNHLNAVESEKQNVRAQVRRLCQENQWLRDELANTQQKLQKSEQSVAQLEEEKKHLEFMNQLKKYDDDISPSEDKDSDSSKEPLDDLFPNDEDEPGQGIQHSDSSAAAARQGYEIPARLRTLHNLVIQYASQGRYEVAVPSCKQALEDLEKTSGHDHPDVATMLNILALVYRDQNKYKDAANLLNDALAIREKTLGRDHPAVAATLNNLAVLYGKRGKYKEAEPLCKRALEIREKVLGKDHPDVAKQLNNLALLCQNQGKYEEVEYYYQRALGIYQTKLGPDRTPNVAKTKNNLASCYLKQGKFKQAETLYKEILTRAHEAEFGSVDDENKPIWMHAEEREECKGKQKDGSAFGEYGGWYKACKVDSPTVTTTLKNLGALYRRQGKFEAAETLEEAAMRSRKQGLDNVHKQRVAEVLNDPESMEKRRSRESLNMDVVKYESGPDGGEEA

Kd [1]: 9.18 µM
Substance: WD1^pept, TAMRA-conjugated 11-amino-acid peptide centered on the first tryptophan motif of DIC1

ratio to parent ([2]; p = 0.014 vs WT): 0.53
ratio to parent ([3]; p = 0.039 vs WT): 0.47
Substance: mCherry-tagged DIC1a (dynein intermediate chain 1, isoform a), wild-type (from UniProt Q63100) WD1&2AA

ratio to parent ([2]; p = 0.4 vs WT): 0.77
ratio to parent ([3]; p = 1 vs WT): 0.93
Substance: mCherry-tagged DIC1a (dynein intermediate chain 1, isoform a), wild-type (from UniProt Q63100) WD1AA

ratio to parent ([2]; p = 0.064 vs WT): 0.63
ratio to parent ([3]; p = 0.08 vs WT): 0.53
Substance: mCherry-tagged DIC1a (dynein intermediate chain 1, isoform a), wild-type (from UniProt Q63100) WD2AA
